Experiment [1] addresses PR20, extreme drug-resistant mutant of mature HIV-1 protease (HIV-1). The experiment can be described thus: enzyme activity against protease concentration.
The target of experiment [2] is PR, mature HIV-1 protease containing the mutations Q7K, L33I, L63I, C67A, C95A (HIV-1). The experiment can be described thus: differential scanning calorimetry. On the technique in general: DSC measures the heat that a sample takes up or gives off during a temperature scan.
Experiment [3] addresses ScPR, single-chain dimer of two PR monomers linked by a GGSSG sequence (HIV-1). The experiment can be described thus: differential scanning calorimetry.

By pKd is commonly meant the Kd on a negative log10 scale, so that one unit is a factor of ten.

pKd: −log10 of the molar value.

For “PR20, extreme drug-resistant mutant of mature HIV-1 protease (enzyme)”, the pKd in experiment [1] is 7.54.
Regarding “RPB, substrate (CA/SP1) analogue inhibitor H-Arg-Val-Leu-(r)-Phe-Glu-Ala-Nle-NH2 (peptide)”, the figures for the ΔTm (I), Tm(+inhibitor)-Tm(−inhibitor) in experiment [2] and in experiment [3] were 9.2 °C and 7.8 °C, respectively.

(Values after PMC3888107.)
